In US20220010008A1 (SHANGHAI PHARMAEXPLORER, published 2022):

Legend:
mouse IL-5 [1] = target: T1, mouse IL-5 (mouse, UniProt P04401 21-133); experiment: ELISA on mouse IL-5; antibody 0.0002 nM
T1 construct: Source and construct of the mouse IL-5 are not described; also called mouse IL-5 protein
T1 sequence (looked up): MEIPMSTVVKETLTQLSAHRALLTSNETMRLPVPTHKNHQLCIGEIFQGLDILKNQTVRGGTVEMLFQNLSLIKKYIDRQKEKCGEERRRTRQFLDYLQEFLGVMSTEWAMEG
Procedure: (§1) The titer of antibody reacting with human IL-5 protein and the cross reaction with mouse and monkey IL-5 protein were detected and analyzed by enzyme-linked immunosorbent assay (ELISA). Streptavidin was diluted with PBS to a final concentration of 1.0 μg/ml, and then added to a 96-well enzyme-labeled plate as 100 microliters per well. The plate was incubated at 4° C. overnight. On the second day, the plate was washed twice with washing solution (PBS+0.01% Tween20). The blocking solution (PBS+0.05% Tween20+2% BSA) was added for blocking at 37° C. for 1-2 hours. Then the blocking solution was discarded. The biotin-labeled human IL-5 was diluted with sample diluent (PBS+0.05% Tween20+0.2% BSA) to 0.5 μg/ml, and added to an enzyme-labeled plate at 50-100 microliters per well, and incubated at 37° C. for 1 hour. The plate was washed with plate washing solution (PBS+0.05% Tween 20) for 2-3 times. 50-100 microliters of antibody samples to be tested were added to each well, and incubated at 37° C. for 1 hour. Then the plate was washed with plate washing solution (PBS+0.05% Tween20) for 2-3 times. The horseradish peroxidase labeled secondary antibody against human or mouse IgG was added, and reacted at 37° C. for 1 hour. The plate was washed with plate washing solution (PBS+0.05% Tween 20) for 2-3 times. […] The value of O.D. 450 nm was read by ELISA plate reader (SpectraMax M5e, Molecular Device).

[2] = target: recombinant human IL-5 protein with His tag (human, UniProt P05113 20-134, limits assumed, biotin-labeled in the ELISA and in the receptor blocking assay (site not stated)); experiment: cell-based or functional assay
recombinant monkey IL-5 [3] = target: T2, recombinant monkey IL-5 (monkey (cynomolgus macaques)); experiment: ELISA, monkey IL-5, Ab 0.0002 nM
Procedure: as §1, with “times.” for “times. The horseradish peroxidase labeled secondary antibody against human or mouse IgG was added, and reacted at 37° C. for 1 hour. The plate was washed with plate washing solution (PBS+0.05% Tween 20) for 2-3 times.”
(§2) The titer of chimeric antibody reacting with human IL-5 protein and the cross reaction with mouse and monkey IL-5 protein were detected and analyzed by enzyme-linked immunosorbent assay (ELISA). […]

recombinant monkey IL-5 [4] = target: T2, recombinant monkey IL-5; experiment: ELISA, monkey IL-5, Ab 0.0043 nM
Procedure: as §1, with “times.” for “times. The horseradish peroxidase labeled secondary antibody against human or mouse IgG was added, and reacted at 37° C. for 1 hour. The plate was washed with plate washing solution (PBS+0.05% Tween 20) for 2-3 times.”
as §2

[5] = target: recombinant human IL-5 protein (human, UniProt P05113 20-134, limits assumed); experiment: cell-based or functional assay
mouse IL-5 [6] = target: T3, mouse IL-5 (mouse, UniProt P04401 21-133); experiment: ELISA, mouse IL-5, Ab 0.0002 nM
T3 sequence (looked up): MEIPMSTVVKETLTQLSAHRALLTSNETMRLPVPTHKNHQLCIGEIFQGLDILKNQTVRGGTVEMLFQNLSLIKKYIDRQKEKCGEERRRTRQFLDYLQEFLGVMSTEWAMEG
Procedure: as §1, with “times.” for “times. The horseradish peroxidase labeled secondary antibody against human or mouse IgG was added, and reacted at 37° C. for 1 hour. The plate was washed with plate washing solution (PBS+0.05% Tween 20) for 2-3 times.”
as §2

mouse IL-5 [7] = target: T3, mouse IL-5; experiment: ELISA, mouse IL-5, Ab 0.0043 nM
Procedure: as §1, with “times.” for “times. The horseradish peroxidase labeled secondary antibody against human or mouse IgG was added, and reacted at 37° C. for 1 hour. The plate was washed with plate washing solution (PBS+0.05% Tween 20) for 2-3 times.”
as §2

B1: 69F2F3 (murine hybridoma antibody) (antibody, V domains shown)
VH: QVQLKQSGPGLVQPSQSLSITCTVSGFSLSNYGVHWVRQSPGKGLEWLGVIWSGGSTDYNAAFKSRLSITKDNSKSQVVFRMNSLQTDDTATYYCARNKDFLDYWGQGTKFTVSS
VL: DIVMTQSPSSLTVTAGEKVTMTCKSSQGLLNSGNQKNYLTWYQQKPGQPPKLLIYWASTRESGVPDRFTGSGSGTDFTLTISSVQAEDLAVYYCQNDYHFPLTFGAGTKLELK
notes: Mouse monoclonal antibody from hybridoma, purified on Protein G; also called lead antibody; antibody number 3
- OD450 nm (mouse IL-5 [1]): 0.049

B2: 147D7H2 (as tested in Example 9, format not stated) (antibody, V domains shown)
VH: EVQLQQSGAELVKPGASVKLSCTASGFNIKDYFIHWVKQRTEQGLEWIGRIDTEDGETKYAPKFQGKATITIDTSSNTAYLYFSSLTSEDTAMYYCARYGNYVAMDYWGQGTSVTVSS
VL: QIVLTQSPALMSASPGEKVTMTCSASSSVSYMFWYQQKPSSSPKPWIYLTSKLASGVPARFSGSGSGTSYSLTISSVEAEDAATYYCQQWNSNPYTFGGGTKLEIK
- TF1 (IC50), TF1 proliferation induced by IL-5 [2]: ~1 pM

B3: 147D7H2 mouse-human chimeric antibody (antibody, V domains shown)
VH: EVQLQQSGAELVKPGASVKLSCTASGFNIKDYFIHWVKQRTEQGLEWIGRIDTEDGETKYAPKFQGKATITIDTSSNTAYLYFSSLTSEDTAMYYCARYGNYVAMDYWGQGTSVTVSS
VL: QIVLTQSPALMSASPGEKVTMTCSASSSVSYMFWYQQKPSSSPKPWIYLTSKLASGVPARFSGSGSGTSYSLTISSVEAEDAATYYCQQWNSNPYTFGGGTKLEIK
- OD450 nm (recombinant monkey IL-5 [3]): 0.093 OD450 nm
- OD450 nm (recombinant monkey IL-5 [4]): 0.092 OD450 nm

B4: 151G3B11 (as tested in Example 9, format not stated) (antibody, V domains shown)
VH: EVHLQQSGAELVKPGASVKLSCTASGFNIKDYYMHWVKQRTEQGLEWIGRIDPEDGETKYAPKFQGQATITADTSSNTANLQLSSLTSEDTAVYYCARYGNFPDYWGPGTTLTVSS
VL: QIVLTQSPALMSASPGEKVTMTCSASSSVSYMYWYQQKPRSSPKPWIYLTSKLASGVPARFSGSGSGTSYSLTISSMEAEDAATYYCQQWNSNPYTFGGGTKLEIK
- TF1 (IC50), TF1 proliferation induced by IL-5 [2]: ~1 pM

B5: 147D7H2 (as tested in Example 9; murine or chimeric form not stated) (antibody, V domains shown)
VH: EVQLQQSGAELVKPGASVKLSCTASGFNIKDYFIHWVKQRTEQGLEWIGRIDTEDGETKYAPKFQGKATITIDTSSNTAYLYFSSLTSEDTAMYYCARYGNYVAMDYWGQGTSVTVSS
VL: QIVLTQSPALMSASPGEKVTMTCSASSSVSYMFWYQQKPSSSPKPWIYLTSKLASGVPARFSGSGSGTSYSLTISSVEAEDAATYYCQQWNSNPYTFGGGTKLEIK
- TF1 (IC50, nM) [5]: 0.002 nM

B6: 102A2E11B6 (as tested in Example 9, format not stated) (antibody, V domains shown)
VH: QVQLRQSGPGLVQPSQSLSITCTVSGFSLTSYGVHWVRQSPGKGLEWLGVIWSGGSTDYNAVFMSRLSISKDSSKSQVFFKMNSLQTDDTAIYYCARNRYVLDYWGQGTSVTVSS
VL: DIVMTQSPSSLSVSAGERVTMRCKSSQSLLTSGDQKNHLAWYQQKPGQPPKLLIYGASTRESGVPDRFTGSGSGTDFTLTITSVQAEDLAVYYCQNDHSFPLTFGAGTKLELK
- TF1 (IC50), TF1 proliferation induced by IL-5 [2]: ~1 pM

B7: 102A2E11B6 mouse-human chimeric antibody (antibody, V domains shown)
VH: QVQLRQSGPGLVQPSQSLSITCTVSGFSLTSYGVHWVRQSPGKGLEWLGVIWSGGSTDYNAVFMSRLSISKDSSKSQVFFKMNSLQTDDTAIYYCARNRYVLDYWGQGTSVTVSS
VL: DIVMTQSPSSLSVSAGERVTMRCKSSQSLLTSGDQKNHLAWYQQKPGQPPKLLIYGASTRESGVPDRFTGSGSGTDFTLTITSVQAEDLAVYYCQNDHSFPLTFGAGTKLELK
- OD450 nm (mouse IL-5 [6]): 0.046 OD450 nm
- OD450 nm (mouse IL-5 [7]): 0.069 OD450 nm
